# Laboratory results from patent US8268550B2, “Compositions and methods for identification of PARP function, inhibitors, and activators” (Massachusetts Institute of Technology, priority 2009, dated 2012).
# B1: PARP13: PARP13 overexpressed from a pEGFP-C1 expression vector; isoform not specified (protein)
# chain: ADPEVCCFITKILCAHGGRMALDALLQEIALSEPQLCEVLQVAGPDRFVVLETGGEAGITRSVVATTRARVCRRKYCQRPCDNLHLCKLNLLGRCNYSQSERNLCKYSHEVLSEENFKVLKNHELSGLNKEELAVLLLQSDPFFMPEICKSYKGEGRQQICNQQPPCSRLHICDHFTRGNCRFPNCLRSHNLMDRKVLAIMREHGLNPDVVQNIQDICNSKHMQKNPPGPRAPSSHRRNMAYRARSKSRDRFFQGSQEFLASASASAERSCTPSPDQISHRASLEDAPVDDLTRKFTYLGSQDRARPPSGSSKATDLGGTSQAGTSQRFLENGSQEDLLHGNPGSTYLASNSTSAPNWKSLTSWTNDQGARRKTVFSPTLPAARSSLGSLQTPEAVTTRKGTGLLSSDYRIINGKSGTQDIQPGPLFNNNADGVATDITSTRSLNYKSTSSGHREISSPRIQDAGPASRDVQATGRIADDADPRVALVNDSLSDVTSTTSSRVDDHDSEEICLDHLCKGCPLNGSCSKVHFHLPYRWQMLIGKTWTDFEHMETIEKGYCNPGIHLCSVGSYTINFRVMSCDSFPIRRLSTPSSVTKPANSVFTTKWIWYWKNESGTWIQYGEEKDKRKNSNVDSSYLESLYQSCPRGVVPFQAGSRNYELSFQGMIQTNIASKTQKDVIRRPTFVPQWYVQQMKRGPDHQPAKTSSVSLTATFRPQEDFCFLSSKKYKLSEIHHLHPEYVRVSEHFKASMKNFKIEKIKKIENSELLDKFTWKKSQMKEEGKLLFYATSRAYVESICSNNFDSFLHETHENKYGKGIYFAKDAIYSHKNCPYDAKNVVMFVAQVLVGKFTEGNITYTSPPPQFDSCVDTRSNPSVFVIFQKDQVYPQYVIEYTEDKACVIS
# Test system: 293T cells
# Experiment: Modified pGL4.72[hRlucCP] vector luciferase assay of RNAi/miRNA activity
# Assay type: cell-based
# Conditions: overexpression from pEGFP-C1; 10 nM vector-target RNAi; 48 hours post-transfection; FIG. 30
# Procedure: To identify additional substrate proteins of PAPR13, immunoprecipitation experiments were performed on lysate from HeLa cells transfected with a pEGFP-C1 plasmid containing a sequence encoding a PARP13-GFP fusion protein following treatment with either 0 or 250 μM sodium arsenite for 30 minutes. The cell lysate was treated with an anti-GFP antibody and the resulting immunoprecipitated proteins were electrophoresed using SDS-PAGE. […] In a second set of experiments, the ability of the vector-target RNAi to reduce the expression of luciferase was measured in 293T cells transfected with pGL4.72[hRlucCP]™ vector, 20 nM vector-target RNAi, and 20 nM of negative RNAi control for PARP13 siRNA (siNeg; AllStars Negative Control siRNA; Qiagen Catalog No. 1027280) or PARP13 siRNA (siPARP13; SEQ ID NO: 40) following treatment with 0 or 30 nM pateamine A for 2 hours. […]
# Experiments to determine the effect of knockdown of PARP13 on miRNA and RNAi activity were performed using a modified pGL4.72[hRlucCP]™-vector assay (Promega). […] Following 48-hours incubation, the level of luciferase protein production was measured using a luciferase assay kit (Promega). […]
molecule,measurement,value
B1,decrease in the level of miRNA-mediated repression compared to control cells (EGFP- and G3BP-overexpressing cells),3 fold
